According to the DeepSol protein solubility set:

assay: soluble on expression in E. coli; label from the status in PepcDB or PDB records

| Sequence | soluble on expression in E. coli |
| --- | --- |
| MKACGIIVEYNPFHNGHRYHAQQARQQSGAEVVIAIMSGNFLQRGEPALLDKWARAEEALQNGVDLVIELPTAWSVQSADYFAKGGIKLLQALQCESLCFGTDSTSAIDYAAFGQFVQENQSLIDQTFHALTDKQLSYPQKMTAVFRQVYPESRFDFSSPNHILGMSYAKENATYPTPMTLYPIARKQAGFHDATISGKVASATAIRQSVFQQEITQVLPTVPSITAQHLQTQTMISWENYWPFLKYKIVQSSLEELQAIYQMTEGLEYRLKDQIQAAGSFHELMERMKTKRYTWTRLQRLATYILLNMTKEEVETVWQNSYLHVLGFTPKGQAYLKETKAQIQLPVISKVSKENRAMLSLDIRANQLYQMGDSSLKEQNFGRFPLRFSPDT | not soluble |
| GHMLDVAPPVITPRGTKIEPSAGAPFEAVRVARDVLHTSRTAALATLDPVSGYPYTTATNIGIEPDGTPFFFAAGLTLHARNMETDARISVTLAPFGKGDALTLPRLTLVGRADRIGPDEVPLAIARYIARYPKAKLYLSLPDTRLYRLRTEGVQINGGPARNASNITPADLRTDLSGAEELMAAAESEATRLNAIKGEASRLAVLAGAKTGRWKITSIDPDGIDLASASDLARLWFAERVETLKQFEKALAQLLKGS | soluble |
| GPGSMEAGGDDLFVINDVEADQMEEVRDARPVEQAQETEADVMESVKGLVPLCVQHAQGPQLSSATFGYDIALMAKRPWAEPGAKLSDYFNYGFNEQSWRVYCAMQEKGEESLLANATAVLQKLELAARPG | soluble |
| SGELGEHRASLLSNPIPEVKTLGELKQGQNNGNLDLESEPFGSHWLQGSKATTGRTSEEPEEEIPPEEMAGEELPETSNLDGPLQQDLEVEVVEMSHLSITERTPSVSTAKGRKKRSRRLLELAKPKTNWQCLRDRPSVYWTERFIEDTTLTITVPVVSQRMEELSRPKRFYQEYYNNNRTTPIWSIPRSTLEYQASNRLKQLATPKVRNNIWSINMSEVSQVSRAAQMAVPTPRTLRLAKPRPPATLLEEWDPMPKPKPYVSDYNRLLQLATPKALSEKCVPDRSPQWEVLDVTKNAVASSRIISLAQPKIRKDLNEGYNPYYISPASLVAQASPRIYELATPKYITKKV | soluble |
| MKQESASQSTPPPSLSPAPSSAQPFWGDGDPQALWIFGYGSLVWKPDFAYSDSRVGFVRGYSRRFWQGDTFHRGSDKMPGRVVTLLEDHEGCTWGVAYQVRGEQVNEALKYLNVREAVLGGYDTKEVTFYPQDTPDQPLTALAYVATPQNPGYLGPAPEEVIATQILACRGFSGHNLEYLLRLADFMQLCGPQAQDEHLEAIVDAVGTLLPCSYLPEQPLALT | soluble |
| MSLLHKDYHHFALTALEERKLAQLPPYSFLSLFRAEANHTAQVEDFLRQVRETLRCNPWFDSECMVLGPTPAPLAKRAGKFRWQLLLQTPNRTLMQKILQSARPALQQLPLASKVRWSIDIDPQDLSEGHHHHHH | soluble |
| MCLLTFAYQTNKRFPFVFAANRDEYYDRPTLFAHEWKEDPNVIGGRDLKKGGTWLGFTKEGKIAALTNVRDSFKHSGIPFQSRGFIVQDYLTSNTSAQLFMERLIQTADEFDGYNLVFGSYHDLYYYTNRMEKGEKLKPGYYMLSNGQMNSHWPKAVKVRTHLQSVLEREQDIETIIKKLLAIMQDEERFPDEQLPDTGVGIEWERILSPIFINGKTYGTRATTVIICTDEGESFFLEWNYGPMGIFLEKREFHIQLPSSYLNMKKDYELEHHHHHH | not soluble |
| SLRPIPYLPNMIGLITGRASAAERDVTTVASARWPAARFAVRNVAVQGPNAVGQIVEALRELDRDPDVDVIVLARGGGSVEDLLPFSDETLCRAIAACRTPVVSAVGHEPDNPLCDLVVDLRAATPTDAAKKVVPDTAAEQRLIDDLRRRSAQALRNWVSREQRAVAQLRSRPVLADPMTMVSVRAEEVHRARSTLRRNLTLMVAAETERIGHLAARLATLGPAATLARGYAIVQTVAQTGPEGGSEPQVLRSVHDAPEGTKLRVRVADGALAAVSEGQTNGL | soluble |
| AQHPPYCRNQPGKCQIPLQSLFDRATTVANYNSKLAGEMVNRFDEQYGQGINSESKVINCHTSSITTPNSKAEAINTEDKILFKLVISLLHSWDEPLHHAVTELANSKGTSPALLTKAQEIKEKAKVLVDGVEVIQKRIHPGEKNEPYPVWSEQSSLTSQDENVRRVAFYRLFHCLHRDSSKIYTYLRILKCRLTSCET | soluble |
| MGSDKIHHHHHHVYNEFFHLRTKPFELLPDPDFLYPSKAHRKALAYFEYGLSERSGFILLTGEVGSGKTTLIREMLKRDLGRMVLSKVFNTRVDSTQLVAMINDDFGLETAGRDKMVMLRDLNDFLIDQYAAGRRAVLVIDEAQNLSQELLEEVRMLSNLETDSAKLLQIILVGQPELRDLLRSPALVQLRQRIQVHCHIAPLSQEELREYVLFRLERAGNRDAMEWGEGVFGLMHEATRGIPRLVNILCDYVLLDAYAAGRRSINSAELQDLLAELDFERQFWPVDETSAPAPAAEQQRRTAVRRDASSVARRMMLMLQDLGQRLDVLERGYEKSGPDMLADMAERLGALEKRVTVLAGRVESLHAERMQRGAAPQVQPYRQKPERRKGWFRRVFGGD | not soluble |
| MAHHHHHHMAYALVEADSISFSLKPADLCADSPLEYGSPREKETNGLSPCGDKGPLTPFGVRPHLFSKGWWRLVVLSSVPLDSYRAIPKDTWSFTEKGQLKQGSNALLFSYACTVSDRTDITLLLDVHSQRPIPFRIKIFRAGVEGPPVFVSEECVNHLFVPHVAVDVPEKVKNVAYIIEAWLDKEKVEEWERMRRLSQELKFLLAAEAARVKAEMKQQKELQEYHEDPRAFKERLLNQEMGPVENLVPTPLREQMSVSSKKGRPSVDKRRTLSNAAPSRQTIVRTSVTPSTPASAVAVHIDSIDPELVVTYDLRLYFSAKTDVKCVATGKDPLTTMRGLWVHQLILFLGKPLRSPVVAREGSVGSRRILLHLLKNYTRRII | not soluble |
| GMTSRSPFESFVWQSEIFNCQSNDIDAFYAQLAEEVNRLGLKKNTLGSVDSFAINLYQSASQRSDLPSLLISSGFHGEEAAGPWGMLHFLRGLQPALFERVNLSLLPLVNPTGFKAGHRFNRFGENPNRGFTLENGKPTPNEHTSLEGKLLLEHAQLLCAASRDGILTCHEDVLMNETYVYSFEPTQTPGRFSLGLRDALGQYFKLAKDGFIDECPVTDGVIFNHFDTSFEAFLVRSGAKLAACSETPGQEDFDRRVQANSAAMGQFIAHCAPIL | soluble |
| MFGGIENVKAAEPKVYQFDFGSGSMEPGYIGVRASDRYDRSKGYGFQTPENMRDVAASGAGVKSDAVEFLAYGTKSNNTFNVDLPNGLYEVKVTLGNTARASVAAEGVFQVINMTGDGAEDTFQIPVTDGQLNLLVTEGKAGTAFTLSALKIKKLSDQPVTNRTIYVGGDSTVCNYYPLNSSKQAGWGQMLPHYIDKHTFQVRNMASGGQIARGFRNDGQLEAILKYIKPGDYFMLQLGINDTNPKHKESEAEFKEVMRDMIRQVKAKGADVILSTPQGRATDFTSEGIHSSVNRWYRASILALAEEEKTYLIDLNVLSSAYFTSIGPERTLGLYMDGDTLHPNRAGADALARLAVQELKRQGIAGFLEHHHHHH | soluble |
| SNAMNIQILQEQANTLRFLSADMVQKANSGHPGAPLGLADILSVLSYHLKHNPKNPTWLNRDRLVFSGGHASALLYSFLHLSGYDLSLEDLKNFRQLHSKTPGHPEISTLGVEIATGPLGQGVANAVGFAMAAKKAQNLLGSDLIDHKIYCLCGDGDLQEGISYEACSLAGLHKLDNFILIYDSNNISIEGDVGLAFNENVKMRFEAQGFEVLSINGHDYEEINKALEQAKKSTKPCLIIAKTTIAKGAGELEGSHKSHGAPLGEEVIKKAKEQAGFDPNISFHIPQASKIRFESAVELGDLEEAKWKDKLEKSAKKELLERLLNPDFNKIAYPDFKGKDLATRDSNGEILNVLAKNLEGFLGGSADLGPSNKTELHSMGDFVEGKNIHFGIREHAMAAINNAFARYGIFLPFSATFFIFSEYLKPAARIAALMKIKHFFIFTHDSIGVGEDGPTHQPIEQLSTFRAMPNFLTFRPADGVENVKAWQIALNADIPSAFVLSRQKLKALNEPVFGDVKNGAYLLKESKEAKFTLLASGSEVWLCLESANELEKQGFACNVVSMPCFELFEKQDKAYQERLLKGEVIGVEAAHSNELYKFCHKVYGIESFGESGKDKDVFERFGFSVSKLVNFILSK | soluble |
